This is an account of results in paper PMC5190064.

In the assay the target is integrin αvβ3 expressed on primary human brain endothelial cells (ECs) (human (endogenous in primary brain ECs)) (UniProt P06756).
UniProt P06756, sequence (P06756 31-1048, chain 1 of 2): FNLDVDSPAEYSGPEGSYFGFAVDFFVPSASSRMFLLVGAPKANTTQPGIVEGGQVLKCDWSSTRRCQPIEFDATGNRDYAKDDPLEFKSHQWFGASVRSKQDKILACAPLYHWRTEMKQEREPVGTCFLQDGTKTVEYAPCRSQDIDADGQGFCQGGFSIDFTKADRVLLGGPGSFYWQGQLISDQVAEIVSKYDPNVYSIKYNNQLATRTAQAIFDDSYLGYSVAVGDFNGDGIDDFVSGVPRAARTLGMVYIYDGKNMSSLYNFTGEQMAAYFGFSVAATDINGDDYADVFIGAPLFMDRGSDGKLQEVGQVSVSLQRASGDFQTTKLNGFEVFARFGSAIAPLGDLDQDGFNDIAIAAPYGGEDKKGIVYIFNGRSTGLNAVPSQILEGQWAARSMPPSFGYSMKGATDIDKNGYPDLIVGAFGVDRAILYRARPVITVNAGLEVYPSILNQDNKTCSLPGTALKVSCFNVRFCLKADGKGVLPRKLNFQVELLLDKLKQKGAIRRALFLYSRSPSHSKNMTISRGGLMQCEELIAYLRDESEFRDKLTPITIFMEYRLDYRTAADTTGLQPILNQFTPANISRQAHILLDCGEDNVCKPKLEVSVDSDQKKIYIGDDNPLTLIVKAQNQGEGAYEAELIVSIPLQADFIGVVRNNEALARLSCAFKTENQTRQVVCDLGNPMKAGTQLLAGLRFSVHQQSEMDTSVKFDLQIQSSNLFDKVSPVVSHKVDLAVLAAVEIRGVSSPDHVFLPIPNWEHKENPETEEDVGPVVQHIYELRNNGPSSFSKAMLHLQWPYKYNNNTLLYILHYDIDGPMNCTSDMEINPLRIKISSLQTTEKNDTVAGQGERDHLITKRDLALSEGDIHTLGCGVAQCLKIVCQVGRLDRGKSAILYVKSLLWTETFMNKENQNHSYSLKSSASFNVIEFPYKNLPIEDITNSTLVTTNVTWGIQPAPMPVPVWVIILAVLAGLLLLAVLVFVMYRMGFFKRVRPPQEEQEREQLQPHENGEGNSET
UniProt P06756, sequence (P05106 27-788, chain 2 of 2, further chain): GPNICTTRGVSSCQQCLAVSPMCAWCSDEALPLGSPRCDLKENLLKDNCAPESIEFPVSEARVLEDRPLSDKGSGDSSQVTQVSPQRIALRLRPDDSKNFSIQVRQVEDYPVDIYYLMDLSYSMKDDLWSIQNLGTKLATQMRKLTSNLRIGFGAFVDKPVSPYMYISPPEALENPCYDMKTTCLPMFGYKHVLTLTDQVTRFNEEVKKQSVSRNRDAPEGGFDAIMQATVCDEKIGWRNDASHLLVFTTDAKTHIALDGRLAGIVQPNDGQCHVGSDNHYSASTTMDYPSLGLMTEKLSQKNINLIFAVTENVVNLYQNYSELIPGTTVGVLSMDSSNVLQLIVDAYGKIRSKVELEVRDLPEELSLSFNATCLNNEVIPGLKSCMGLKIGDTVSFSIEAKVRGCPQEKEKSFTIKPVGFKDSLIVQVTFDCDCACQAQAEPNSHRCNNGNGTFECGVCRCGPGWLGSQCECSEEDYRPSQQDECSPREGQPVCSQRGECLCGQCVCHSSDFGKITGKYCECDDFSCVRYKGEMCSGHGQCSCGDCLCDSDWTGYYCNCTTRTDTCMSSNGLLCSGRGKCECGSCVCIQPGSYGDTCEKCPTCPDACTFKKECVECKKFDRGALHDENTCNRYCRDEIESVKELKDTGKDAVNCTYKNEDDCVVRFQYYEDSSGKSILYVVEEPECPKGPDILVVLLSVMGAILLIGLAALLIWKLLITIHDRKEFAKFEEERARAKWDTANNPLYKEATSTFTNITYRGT

Substance “L1CAM expressed on cancer stem-like cells (CSCs) from glioblastoma (from UniProt P32004 20-1257) (receptor)” came in with a cell-cell adhesion of GFP-CSCs (08387) to a confluent EC monolayer after pre-incubation of ECs with a neutralizing antibody to integrin αvβ3; percent reduction of CSC adhesion of 43%.
